Reference: patent US20020110800A1, “Use of SHP-1 and SHP-2 to detect compounds involved in neuronal survival” (McGill University, priority 1997, published 2002)

Tests used:
TrkA [1] = target: T1, TrkA (Homo sapiens, UniProt P04629); experiment: In vitro association of SHP with baculovirus-expressed TrkA; type: binding; settings: autophosphorylated TrkA, insect cells
T1 construct: expressed in transfected cells; host or cells: Sf9 insect cells infected with recombinant baculoviruses
Procedure: (§1) FIG. 7 is a Western blot showing that SHP-1 associates with baculovirus-expressed TrkA, TrkB and TrkC. TrkA, B and C were activated and autophosphorylated in vitro, incubated with PC12 cell lysates, fractionated by electrophoresis, and probed with anti-SHP-1 (bottom panel), and anti-pan Trk antibodies (upper panel).
Wild-type and mutant TrkA receptors expressed in Sf9 cells were autophosphorylated, incubated with PC12 lysates and immunoblotted with anti-SHP-2.
The in vitro association assay using baculovirus-expressed proteins was performed as described (Kaplan et al., supra). Briefly, Sf9 cells (2×10^6) were infected, harvested, and lysed in NP-40 lysis buffer. Trk proteins were immunoprecipitated with anti-Trk (203) antibody, and the immunoprecipitates were washed once with lysis buffer containing 1% deoxycholate and 0.1% SDS (RIPA), and three times with 50 mM Tris (pH 7.4). Trks then were activated (i.e. autophosphorylated) by incubation with 50 mM Tris (pH 7.4), 5 mM Mn Cl2, 1 mM ATP and 200 μM orthovanadate. Trk proteins then were washed twice with NP40 lysis buffer and were resuspended in 1 ml of PC12 cell lysate. The immunoprecipitated, activated Trk complexes were incubated with the cell lysate for 3 hr at 4° C., and then washed three times with NP-40 lysis buffer and once with 10 mM Tris (pH 7.4) before immunoblot analysis. […]

Trk = target: T2, Trk (Homo sapiens, UniProt P04629); experiment: In vitro dephosphorylation of autophosphorylated 32P-labeled Trk by partially purified SHP; type: biochemical; settings: 20 minutes at 30° C.
T2 construct: made in house; host or cells: Sf9 insect cells (recombinant baculovirus)
T2 sequence (P04629 33-790 isoform P04629-2 limits assumed): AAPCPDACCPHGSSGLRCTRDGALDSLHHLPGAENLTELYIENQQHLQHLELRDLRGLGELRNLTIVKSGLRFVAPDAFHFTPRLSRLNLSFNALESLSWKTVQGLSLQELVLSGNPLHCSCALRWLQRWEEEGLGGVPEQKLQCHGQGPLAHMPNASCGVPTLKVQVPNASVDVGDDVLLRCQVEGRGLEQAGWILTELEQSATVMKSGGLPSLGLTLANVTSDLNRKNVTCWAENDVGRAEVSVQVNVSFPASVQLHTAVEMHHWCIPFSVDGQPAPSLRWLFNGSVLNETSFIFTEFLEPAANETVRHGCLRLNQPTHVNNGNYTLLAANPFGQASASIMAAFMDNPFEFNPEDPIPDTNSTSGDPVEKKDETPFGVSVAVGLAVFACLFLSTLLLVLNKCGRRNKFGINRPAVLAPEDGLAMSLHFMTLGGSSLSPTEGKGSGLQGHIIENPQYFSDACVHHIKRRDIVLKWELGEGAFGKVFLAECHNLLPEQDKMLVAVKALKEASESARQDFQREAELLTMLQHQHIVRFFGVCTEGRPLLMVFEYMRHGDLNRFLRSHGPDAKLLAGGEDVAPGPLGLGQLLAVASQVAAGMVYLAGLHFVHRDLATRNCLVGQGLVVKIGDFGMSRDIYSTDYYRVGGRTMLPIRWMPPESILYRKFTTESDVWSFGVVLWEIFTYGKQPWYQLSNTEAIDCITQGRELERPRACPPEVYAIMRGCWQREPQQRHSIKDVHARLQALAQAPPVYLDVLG
Procedure: FIG. 10 is an autoradiogram showing that SHP-1 and SHP-2 dephosphorylate Trk in vitro. Trk, SHP-1 and SHP-2 were expressed in Sf9 insect cells and isolated by immunoprecipitation with anti-Trk, anti-SHP-1 or anti-SHP-2 antibody. Immunoprecipitated Trk was autophosphorylated with [y-^32P]ATP and then was incubated with partially purified SHP-1 or SHP-2. Trk phosphorylation levels then were analyzed by SDS/PAGE and autoradiography.
We hypothesized that the suppressive effects of SHP upon NGF-mediated survival might be due to dephosphorylation of the autophosphorylated Trk receptor. Given that SHP-1 can bind to activated Trk and that SHP-2 is activated by Trk (see Example II), we sought to determine whether the SHPs could dephosphorylate TrkA in vitro and in vivo. Trk, SHP-1, and SHP-2 were expressed in Sf9 cells and isolated by immunoprecipitation with anti-Trk, anti-SHP-1, or anti-SHP-2 antibodies. Immunoprecipitated Trk was autophosphorylated by incubating with 10 mM MnCl2, 20 mM Tris pH 7.4 and 2.0 μCi/ml [γ-^32P]-ATP(3000 Ci/mmol) for 30 minutes at room temperature. Activated, radiolabeled Trk then was incubated with partially purified SHP-1 or SHP-2 for 20 minutes at 30° C. In vitro, both SHP-1 and SHP-2 are able to dephosphorylate Trk to a similar extent (FIG. 10) i.e., approximately 5-fold dephosphorylation. […]

TrkA [2] = target: T1, TrkA; experiment: Trk dephosphorylation on coexpression with SHP in Sf9 insect cells; type: cell-based; settings: wild-type TrkA coexpressed in insect cells; for dephosphorylation of Trk at the 674/675 sites: phospho-specific anti-Trk antibodies
Excerpt: (§2) FIG. 11 is a Western blot showing that Y490 and Y785 of TrkA are not required for SHP-1 and SHP-2-mediated dephosphorylation of TrkA in vivo. Lysates of Sf9 insect cells coexpressing SHP-1 or SHP-2 wild-type and mutant TrkAs, as indicated, were immunoprecipitated with anti-Trk and probed with anti-pTyr antibody (upper panel) to determine TrkA phosphorylation levels.
(§3) FIG. 12 is a Western blot showing that Y674/Y675 of TrkA are targets of SHP-1 and SHP-2-mediated dephosphorylation. Lysates of Sf9 insect cells co-expressing SHP-1 or SHP-2 and wild-type TrkA using antibodies that specifically recognize these phosphorylated residues. Blots were probed with anti-pan Trk (C,D), anti-SHP-1 (E,F), or anti-SHP2 (G,H) antibodies.
(§4) Sf9 insect cells (2×10^6) were infected with recombinant baculoviruses at a multiplicity of infection of 1 to 10 and lysed at 48 hr postinfection. Sf9 cells were assayed for the expression of the recombinant proteins by immunoblot analysis, as described above. Recombinant baculoviruses were prepared as previously described (Stephens et al., Neuron, 12:691-705, (1994).
(§5) We hypothesized that the suppressive effects of SHP upon NGF-mediated survival might be due to dephosphorylation of the autophosphorylated Trk receptor. Given that SHP-1 can bind to activated Trk and that SHP-2 is activated by Trk (see Example II), we sought to determine whether the SHPs could dephosphorylate TrkA in vitro and in vivo. Trk, SHP-1, and SHP-2 were expressed in Sf9 cells and isolated by immunoprecipitation with anti-Trk, anti-SHP-1, or anti-SHP-2 antibodies. Immunoprecipitated Trk was autophosphorylated by incubating with 10 mM MnCl2, 20 mM Tris pH 7.4 and 2.0 μCi/ml [γ-^32P]-ATP(3000 Ci/mmol) for 30 minutes at room temperature. Activated, radiolabeled Trk then was incubated with partially purified SHP-1 or SHP-2 for 20 minutes at 30° C. In vitro, both SHP-1 and SHP-2 are able to dephosphorylate Trk to a similar extent (FIG. 10) i.e., approximately 5-fold dephosphorylation. Moreover, coexpression of Trk with SHP-1 or SHP-2 in insect cells results in Trk dephosphorylation. In vivo, both SHP-1 and SHP-2 reduce Trk tyrosine phosphorylation, even when the receptors lack tyrosine 490 (Y490F) and/or tyrosine 785 (Y785F) (FIGS. 11 and 12).
(§6) In order to map the sites of dephosphorylation two approaches were taken. First, we asked whether Trks mutated at tyrosines 490 and 785 could be dephosphorylated by SHP-1 or SHP-2 when coexpressed in insect cells (FIG. 11). SHP-1 extensively dephosphorylates (about 8-fold) all of the Trks, both wild-type and mutated, whereas SHP-2 causes a more modest dephosphorylation (about 2-fold). […] To determine whether the two other major tyrosine phosphorylation sites in Trk, Y674 and 675, are substrates of the SHPs, wild-type TrkA and the SHPs were coexpressed in insect cells, and Trk phosphorylation at Y674, Y675 and Y490 was assessed using phospho-specific anti-Trk antibodies directed at tyrosines 674/675 and 490. SHP-1 completely dephosphorylates Trk (about 10-fold) at the 674/675 sites, while SHP-2 partially dephosphorylates Trk (about 2-fold) at these sites. Tyrosine phosphorylation of the Y490 site also is decreased by SHP-1. […] Since SHP-2 expression stimulates sympathetic neuron death (FIG. 6), we conclude that SHP functions by associating with neurotrophin-activated Trk, dephosphorylating the receptor at sites crucial for maintaining Trk activity, and thereby suppressing neuronal survival.

TrkA [3] = experiment: as above; type: cell-based; settings: coexpressed in insect cells, anti-pTyr blot
Excerpt: as §2, §3, §4, §5, §6

SHP-1 = experiment: NGF-stimulated tyrosine phosphorylation of SHP-1 (immunoprecipitation with anti-SHP-1, anti-pTyr blot); type: cell-based; settings: PC12 cells; increased at 10 minutes, still elevated at 30 minutes of neurotrophin treatment
Procedure: FIG. 2 is a Western blot showing that NGF stimulates tyrosine phosphorylation of SHP-1 in PC12 cells. Lysates prepared from cells treated with NGF were immunoprecipitated with anti-SHP-1 and probed with an anti-phosphotyrosine (pTyr) antibody (top panel).
(§7) Immunoprecipitations and immunoblotting were performed as previously described (Kaplan et al., Science, 252:554-558, 1991). Briefly, after two washes with ice-cold Tris-buffered saline, cells were lysed in 1 ml of 1% Nonidet P-40 (NP-40 lysis buffer (20 mM Tris [pH8.0], 137 mM NaCl, 0.5 mM EDTA, 10% glycerol, 1 mM phenylmethylsulphonyl fluoride, 0.15 U/ml aprotinin, 20 μM leupeptin, 1 mM sodium vanadate) at 4° C. for 20 min. Insoluble material was removed by centrifugation at 4° C. for 10 min at 10,000× g. Immunoprecipitations were performed for 4-6 hr at 4° C. Precipitates were collected with protein A-Sepharose, then washed three times with NP-40 lysis buffer and once with water. The immunoprecipitates were boiled in sample buffer (2% SDS, 100 mM dithiothreitol, 10% glycerol, 0.25% bromophenol blue) for 5 min and electrophoretically fractionated by SDS-PAGE. Protein blots were probed overnight at 4° C. with antibody. […]

SHP-2 [4] = experiment: NGF-stimulated association of SHP-2 with tyrosine-phosphorylated proteins in SCG neurons; type: cell-based, rat; settings: NGF-treated SCG cultures
Excerpt: FIG. 4 is a Western blot showing that NGF stimulates an increased association of tyrosine-phosphorylated proteins with SHP-2 in SCG neurons. Lysates prepared from neurotrophin-treated SCGs were immunoprecipitated with anti-SHP-2 antibody and immunoblotted with anti-pTyr. Lanes 1 and 2: NGF-stimulated association of tyrosine-phosphorylated proteins with SHP-2. Lanes 3 and 4: NGF-stimulated increase in tyrosine phosphorylation of SCG proteins.
To determine the mechanism whereby the neutrotrophins stimulate the survival and growth of normal and injured neurons, we have asked whether the phosphoprotein phosphatases SHP-1 and SHP-2 play a role in the differentiation and survival of primary neurons, focusing our studies on cultured rat sympathetic cervical ganglion (SCG) and cortical neurons in order to determine the exact nature of this regulation.
Immunoprecipitations and immunoblotting were performed as previously described (Kaplan et al., Science, 252:554-558, 1991). […]

SHP-2 [5] = experiment: NGF-stimulated association of SHP-2 with tyrosine-phosphorylated proteins in PC12 cells; type: cell-based; settings: proteins of 50 to 125 kDa
Procedure: FIG. 3 is a Western blot showing that NGF stimulates the association of SHP-2 with tyrosine-phosphorylated proteins in PC12 cells. Lysates prepared from PC12 cells treated with NGF for the indicated times were immunoprecipitated with anti-SHP-2 and probed with anti-pTyr antibodies.
as §7

TrkB = target: T3, TrkB (Homo sapiens, UniProt Q16620); experiment: In vitro association of SHP with baculovirus-expressed TrkB; type: binding; settings: autophosphorylated TrkB, insect cells
T3 construct: made in house; host or cells: Sf9 insect cells (recombinant baculovirus)
T3 sequence (Q16620 32-822, species assumed): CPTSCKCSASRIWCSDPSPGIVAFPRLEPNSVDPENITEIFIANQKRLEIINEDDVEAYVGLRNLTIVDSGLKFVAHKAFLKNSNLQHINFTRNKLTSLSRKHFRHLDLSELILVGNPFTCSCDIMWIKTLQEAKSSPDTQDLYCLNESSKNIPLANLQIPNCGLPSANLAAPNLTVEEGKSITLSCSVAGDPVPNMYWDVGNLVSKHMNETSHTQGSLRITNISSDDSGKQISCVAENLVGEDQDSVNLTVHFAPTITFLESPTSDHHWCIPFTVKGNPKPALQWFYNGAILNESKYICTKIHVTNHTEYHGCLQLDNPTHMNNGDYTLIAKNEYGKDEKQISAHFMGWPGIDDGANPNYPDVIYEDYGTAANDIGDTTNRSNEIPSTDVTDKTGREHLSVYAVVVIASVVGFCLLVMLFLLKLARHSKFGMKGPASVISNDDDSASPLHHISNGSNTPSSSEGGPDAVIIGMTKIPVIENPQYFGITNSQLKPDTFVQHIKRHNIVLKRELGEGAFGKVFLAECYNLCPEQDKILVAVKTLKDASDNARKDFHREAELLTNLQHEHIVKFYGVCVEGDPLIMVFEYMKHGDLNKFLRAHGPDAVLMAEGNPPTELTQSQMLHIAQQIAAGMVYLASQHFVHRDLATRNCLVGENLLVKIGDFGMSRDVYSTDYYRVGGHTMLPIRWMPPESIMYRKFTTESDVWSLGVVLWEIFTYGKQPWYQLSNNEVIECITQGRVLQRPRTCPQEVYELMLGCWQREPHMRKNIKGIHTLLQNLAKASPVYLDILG
Procedure: as §1
(§8) The in vitro association assay using baculovirus-expressed proteins was performed as described (Kaplan et al., supra). Briefly, Sf9 cells (2×10^6) were infected, harvested, and lysed in NP-40 lysis buffer. Trk proteins were immunoprecipitated with anti-Trk (203) antibody, and the immunoprecipitates were washed once with lysis buffer containing 1% deoxycholate and 0.1% SDS (RIPA), and three times with 50 mM Tris (pH 7.4). Trks then were activated (i.e. autophosphorylated) by incubation with 50 mM Tris (pH 7.4), 5 mM Mn Cl2, 1 mM ATP and 200 μM orthovanadate. Trk proteins then were washed twice with NP40 lysis buffer and were resuspended in 1 ml of PC12 cell lysate. The immunoprecipitated, activated Trk complexes were incubated with the cell lysate for 3 hr at 4° C., and then washed three times with NP-40 lysis buffer and once with 10 mM Tris (pH 7.4) before immunoblot analysis.
(§9) To investigate the mechanism whereby SHP inhibits NGF-induced signaling responses, we first asked whether the SHPs bound to Trk. […]

TrkC = target: T4, TrkC (Homo sapiens, UniProt Q16288); experiment: In vitro association of SHP with baculovirus-expressed TrkC; type: binding; settings: autophosphorylated TrkC, insect cells
T4 construct: made in house; host or cells: Sf9 insect cells (recombinant baculovirus)
T4 sequence (Q16288 32-839, species assumed): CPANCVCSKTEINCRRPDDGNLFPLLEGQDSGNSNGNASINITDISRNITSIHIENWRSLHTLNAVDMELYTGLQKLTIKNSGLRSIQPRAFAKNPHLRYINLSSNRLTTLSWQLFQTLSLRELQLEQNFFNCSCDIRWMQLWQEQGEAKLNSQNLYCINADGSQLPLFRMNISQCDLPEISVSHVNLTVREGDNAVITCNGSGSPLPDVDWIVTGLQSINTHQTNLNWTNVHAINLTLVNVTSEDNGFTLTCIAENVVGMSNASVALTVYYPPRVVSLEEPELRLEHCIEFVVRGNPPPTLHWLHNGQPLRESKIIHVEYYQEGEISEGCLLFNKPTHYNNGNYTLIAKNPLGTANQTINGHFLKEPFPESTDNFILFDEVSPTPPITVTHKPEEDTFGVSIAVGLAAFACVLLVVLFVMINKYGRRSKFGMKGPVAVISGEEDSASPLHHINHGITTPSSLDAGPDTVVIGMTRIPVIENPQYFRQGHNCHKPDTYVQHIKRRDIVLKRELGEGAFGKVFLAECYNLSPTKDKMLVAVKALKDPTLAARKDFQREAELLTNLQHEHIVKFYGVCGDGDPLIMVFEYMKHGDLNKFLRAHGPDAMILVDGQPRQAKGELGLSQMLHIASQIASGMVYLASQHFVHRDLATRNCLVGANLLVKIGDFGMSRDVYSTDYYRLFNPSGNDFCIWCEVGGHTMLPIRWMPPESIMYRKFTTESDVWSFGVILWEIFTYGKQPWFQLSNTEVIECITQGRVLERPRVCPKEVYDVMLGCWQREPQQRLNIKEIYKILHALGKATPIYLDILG
Procedure: as §1, §8, §9

T1 sequence (P04629 33-790 isoform P04629-2): as the sequence (P04629 33-790 isoform P04629-2 limits assumed) above

Row | dephosphorylation of Trk in vitro (Trk) | dephosphorylation of Trk at the 674/675 sites (TrkA [2]) | tyrosine phosphorylation of the Y490 site (TrkA [2]; phospho-specific anti-Trk antibody) | Substance | binding to activated Trk (TrkA [1]) | dephosphorylation of Trks, wild-type and mutated at tyrosines 490 and 785 (TrkA [3]) | tyrosine phosphorylation of SHP-1 (SHP-1) | association of SHP-2 with tyrosine phosphorylated proteins (SHP-2 [4]) | association of SHP-2 with tyrosine phosphorylated proteins (SHP-2 [5]) | binding to activated Trk (TrkB) | binding to activated Trk (TrkC)
1 | approximately 5 fold | about 2 fold |  | SHP-2: nontransmembrane protein-tyrosine phosphatase containing SH2 domains, GenBank Accession Number L03535 | unable to bind to Trk | about 2 fold |  |  |  |  | 
2 |  |  |  | NGF: prototypical neurotrophin, Nerve Growth Factor, obtained from Peprotech |  |  | stimulates an increase in the tyrosine phosphorylation of SHP-1 | SHP-2 could be seen to associate with at least five tyrosine phosphorylated proteins | stimulates the association of SHP-2 with a number of tyrosine phosphorylated proteins |  | 
3 | approximately 5 fold | about 10 fold | decreased | SHP-1: nontransmembrane protein-tyrosine phosphatase containing SH2 domains, GenBank Accession Number M77273 | binds to activated (i.e. autophosphorylated) TrkA, TrkB and TrkC | about 8 fold |  |  |  | binds to activated (i.e. autophosphorylated) TrkA, TrkB and TrkC | binds to activated (i.e. autophosphorylated) TrkA, TrkB and TrkC
